The record followed here is PMC12116771.

Data set [1] relates to Scd6 (His-Scd6-FLAG), arginine-methylated in vitro by Hmt1 (Saccharomyces cerevisiae). Put plainly: EMSA. The note with it: EMSA: 10 mM Tris pH 8, 50 mM NaCl, 0.05% NP-40, 6% glycerol, 1 mM DTT, 2 ug/ml BSA, 0.5 ug/ml tRNA, 30 C 30 min; 2.5% agarose, 1x MOPS, EtBr. (Mobility shift assays separate free from complexed probe on a gel.)
For data set [2], the system named is Scd6 (His-Scd6-FLAG, unmethylated) (Saccharomyces cerevisiae). In words: EMSA. The note with it: EMSA: 10 mM Tris pH 8, 50 mM NaCl, 0.05% NP-40, 6% glycerol, 1 mM DTT, 2 ug/ml BSA, 0.5 ug/ml tRNA, 30 C 30 min; 2.5% agarose, 1x MOPS, EtBr.

In general, Kd refers to the equilibrium constant for the complex coming apart.

As for SRS2 5'UTR 200-mer RNA, the Kd in data set [1] is 2.7 µM; in data set [2], 2.86 µM.
